According to paper PMC3830641 (Biochemistry, 2013):
Positions count from the first letter of the chain named. Numbers in names are those of the source.

B1: EL362, LOV-histidine kinase from Erythrobacter litoralis HTCC2594 (wild type, Arg 150) (enzyme, UniProt Q2N9L9 1-362, looked up)
chain: MDDQPTTRANRVGHPESSRQAYSSESGATHGSLAFPGASGLLFEQAMAQTRMAVCLTDPHQPDHPIVFCNAAFERLTGYEEKDIIGRNCRFLQGARTDESQVARIRDALAKEEVAVVELLNYRKDGSTFWNALHLGPIYDESGKLKYFFRSQWDVTDIHEARAEQRHAKAMAREVSHRLKNVFSVIAGIVNITGRSMDARPVASRINERVQALGRAYEPTLDEAFMGTIEVGQAIRAILAPYDPEGDRVSLEGNGVRTEPNAISSIGLTLHELASNAIKYGALSNETGTIDVSWHHERDDHDRRRLVIDWKESGGPTIEGPPETGGTGFDISETLLSYSNGTLEKRWDRDGLFVRIAIPIEQ
B2: EL362(R150G) (enzyme, Erythrobacter litoralis HTCC2594, UniProt Q2N9L9 1-362, looked up)
chain: B1 chain with R150G
B3: EL368, LOV-histidine kinase from Erythrobacter litoralis HTCC2594 (enzyme, UniProt Q2NCA3 1-360, looked up)
chain: MPLKGEISAQAGREFDTSRLDLRAIIDPRDLRVDPTRLFLETTQQTRLAICISDPHQPDCPVVYVNQAFLDLTGYAREEIVGRNCRFLQGADTDPEQVRKLREGIAAERYTVVDLLNYRKDGIPFWNAVHVGPIYGEDGTLQYFYGSQWDITDIVAERRKAETQRRIAAELRHRTGNIFAVLNAIIGLTSRRERDVSEFADKLSERVSALASAHRMTIMDEPDQEAVAIDDLVTGVMKPYRNRFAERVTTSGPKIELGPRSVTALGLALHELATNAVKYGALSVDAGRVEISWSREDGDVTLVWQEQGGPTVSQEQSEPVKGNGTMLIDGMIASLTGSIERDFAAAGLQAKITLPVHQPE

Experiments:
[1] = biological target: anti-σ factor (ELI_10225) from Erythrobacter litoralis HTCC2594 (Erythrobacter litoralis HTCC2594) (UniProt Q2N854); test: SEC-MALS
SEC-MALS = biological target: the molecule itself; test: SEC-MALS

Molecule | binding result (SEC-MALS) | other results
phospho-EL_PhyR (EL_PhyR phosphorylated by EL368 and ATP) (from UniProt Q2N856 1-266) (natural protein) |  | stoichiometry N [1]: 1
B1 | binds | 
B2 | binds | 
B3 |  | stoichiometry N (SEC-MALS): 2
